84 variants from the RNAGym collection of RNA variant scans (doi:10.1073/pnas.2313332121) can be followed below.

B1: TPR 5TU (parent)
chain: GGAUCUUCUCGAUCUAACAAAAAAGACAAAUCUGCCACAAAGCUUGAGAGCAUCUUCGGAUGCAGAGGCGGCAGCCUUCGGUGGCGCGAUAGCGCCAACGUUCUCAACUAUGACACGCAAAACGCGUGCUCCGUUGAAUGGAGUUUAUCAUG

Variants at the floor of the assay were thinned out.

This data set covers variants of B1. Description: polymerase ribozyme fitness, log enrichment relative to wild type (log ratio); higher = more active; in vitro selection for triplet polymerase activity. The method, boiled down: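 Mutant libraries of each subunit of a heterodimeric triplet polymerase ribozyme were built by PCR and transcribed. Each library went through one round of in vitro selection in triplicate: annealing with biotinylated primer, partner subunit and triplets, frozen incubation at −7 °C, gel excision of extended constructs, streptavidin-bead capture and RT-PCR. Input and output libraries were Illumina-sequenced; only genotypes with ≥10 input reads and ≥1 read per output were kept. Fitness is log2(genotype enrichment/wild-type enrichment), using inverse-variance-weighted replicate averages.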
For the variant A29U G48A A49C C87G, the “polymerase ribozyme fitness (log ratio)” value is not above -4.2.

For the variant A30U A89U C93U A120G C125G G141A G143A A147C, the “polymerase ribozyme fitness (log ratio)” value is not above -4.2.

On to A29G U53A A110G A120U C123G, for which the “polymerase ribozyme fitness (log ratio)” value was not above -4.2.

For A29G U78C, the “polymerase ribozyme fitness (log ratio)” value is not above -4.2.

Consider C27G G58U C76A G86A U90C A106U C125U G136C, for which the “polymerase ribozyme fitness (log ratio)” value is not above -4.2.

A29U A40G U53A C95G: the “polymerase ribozyme fitness (log ratio)” value is not above -4.2.

As for A28C A49U U55A U61A C76A A142C U146A, the “polymerase ribozyme fitness (log ratio)” value is not above -4.2.

Take A28C G68A G92C A122G C132G: the “polymerase ribozyme fitness (log ratio)” value is -3.62.

For the variant A30G, the “polymerase ribozyme fitness (log ratio)” value was -2.24.

Regarding A30U, the “polymerase ribozyme fitness (log ratio)” value was -2.87.

As for A30C, the “polymerase ribozyme fitness (log ratio)” value is -3.12.

Take A28U A64G G68U G83U A121C G143A: the “polymerase ribozyme fitness (log ratio)” value was not above -4.2.

A28G A37U C57A C123U G143C: the “polymerase ribozyme fitness (log ratio)” value was not above -4.2.

Take A30G C38U C54G C72G C75G C96G A147U: the “polymerase ribozyme fitness (log ratio)” value was not above -4.2.

For A30G A37C G94C, the “polymerase ribozyme fitness (log ratio)” value is not above -4.2.

As for A30C C69G C76A G94A G140A, the “polymerase ribozyme fitness (log ratio)” value is not above -4.2.

Consider A29C A49U A150C, for which the “polymerase ribozyme fitness (log ratio)” value was not above -4.2.

Take A30G G46A G70C U78G G86C A142C U146A: the “polymerase ribozyme fitness (log ratio)” value is not above -4.2.

As for A30U A41G A142G, the “polymerase ribozyme fitness (log ratio)” value is -3.58.

On to A30G A41U U55G C93U, for which the “polymerase ribozyme fitness (log ratio)” value was not above -4.2.

As to A30C C54U G70U C93A A120U U130A A138G, the “polymerase ribozyme fitness (log ratio)” value is not above -4.2.

Regarding A29G C54A, the “polymerase ribozyme fitness (log ratio)” value was -3.78.

Take C27U G67A C75U G86C U144C C149A A150G: the “polymerase ribozyme fitness (log ratio)” value is not above -4.2.

For the variant A28G C51A G80A, the “polymerase ribozyme fitness (log ratio)” value is not above -4.2.

With C27U G84A G88A, the “polymerase ribozyme fitness (log ratio)” value was -4.04.

For the variant A28U C54G C69U C79U A91U U134G, the “polymerase ribozyme fitness (log ratio)” value was not above -4.2.

With A28G U44G C51U C75A C76G G84U G140A, the “polymerase ribozyme fitness (log ratio)” value was not above -4.2.

As to A29C C57U U104G G128U, the “polymerase ribozyme fitness (log ratio)” value is not above -4.2.

With A30C G46C A73G G80C G84A A91G, the “polymerase ribozyme fitness (log ratio)” value is not above -4.2.

A28C C108A G136A: the “polymerase ribozyme fitness (log ratio)” value is not above -4.2.

For A28U A49C U56A C95A C96U C108U, the “polymerase ribozyme fitness (log ratio)” value is not above -4.2.

Regarding A30G A91U, the “polymerase ribozyme fitness (log ratio)” value is -4.18.

Consider C27U C95A A138G, for which the “polymerase ribozyme fitness (log ratio)” value is not above -4.2.

Consider A28C A40C G48U G50C C95U G117C A119U C123U, for which the “polymerase ribozyme fitness (log ratio)” value is not above -4.2.

On to C27U G70C A138G, for which the “polymerase ribozyme fitness (log ratio)” value is not above -4.2.

On to A30G A106U A115U C116A A120G, for which the “polymerase ribozyme fitness (log ratio)” value is not above -4.2.

As for C27U A29C U44A U55A C95G G117U, the “polymerase ribozyme fitness (log ratio)” value was not above -4.2.

As for A30C C105U, the “polymerase ribozyme fitness (log ratio)” value is not above -4.2.

In the case of A30C A73U C85G C93G C96G C149U, the “polymerase ribozyme fitness (log ratio)” value is not above -4.2.

A28G U55A G58C A122G: the “polymerase ribozyme fitness (log ratio)” value is not above -4.2.

With C27G U78A G83U A91U G94C U135G G136C, the “polymerase ribozyme fitness (log ratio)” value was -4.03.

Turning to C27U A52C C85G C116G G128U A137G, the “polymerase ribozyme fitness (log ratio)” value was not above -4.2.

Take A29C C76A A91U A110G: the “polymerase ribozyme fitness (log ratio)” value was not above -4.2.

As for A29C G94C A97G A98G U104G, the “polymerase ribozyme fitness (log ratio)” value is not above -4.2.

Turning to A30U C32A C54U C87A A107U, the “polymerase ribozyme fitness (log ratio)” value is not above -4.2.

For the variant A28C G50A A97U G124A A138C, the “polymerase ribozyme fitness (log ratio)” value is not above -4.2.

For the variant A28C A40G G59U C87G A110G G143U G152C, the “polymerase ribozyme fitness (log ratio)” value is not above -4.2.

With C27U C32G G50A C69A A97G U135G G140A, the “polymerase ribozyme fitness (log ratio)” value was not above -4.2.

C27U G62C C63U G94U U104C G152U: the “polymerase ribozyme fitness (log ratio)” value is not above -4.2.

Turning to C27G U56A C99A, the “polymerase ribozyme fitness (log ratio)” value is not above -4.2.

A28U U82C C93U C96G C105A: the “polymerase ribozyme fitness (log ratio)” value is not above -4.2.

Take A28U G84U G86A G94A A98G C131A: the “polymerase ribozyme fitness (log ratio)” value was not above -4.2.

For the variant A28C A37G A47G A66C G86A A107U U135C, the “polymerase ribozyme fitness (log ratio)” value was not above -4.2.

As for A30U C96U, the “polymerase ribozyme fitness (log ratio)” value is -3.12.

As for A28U U45A U78G G81C C116G G136U, the “polymerase ribozyme fitness (log ratio)” value is not above -4.2.

For the variant A29G G34A U56A C75U, the “polymerase ribozyme fitness (log ratio)” value was not above -4.2.

As for A29C U55A U77G U101G U146A U148G, the “polymerase ribozyme fitness (log ratio)” value is not above -4.2.

On to C27G G46A A64C U77G G88U A121U, for which the “polymerase ribozyme fitness (log ratio)” value was not above -4.2.

With C27G U61A A66G C76A C85A G141A, the “polymerase ribozyme fitness (log ratio)” value was not above -4.2.

Take A30C C32U C36U G70U U139A A142C: the “polymerase ribozyme fitness (log ratio)” value was not above -4.2.

Turning to A28U C51A A52C C76U U78G A89G, the “polymerase ribozyme fitness (log ratio)” value is not above -4.2.

On to A28C G81C G92U C103G, for which the “polymerase ribozyme fitness (log ratio)” value is not above -4.2.

As for A30U C95A, the “polymerase ribozyme fitness (log ratio)” value was -3.34.

As for C27G G152A, the “polymerase ribozyme fitness (log ratio)” value is not above -4.2.

C27U A30C C87G G128A C131A U134C G141U: the “polymerase ribozyme fitness (log ratio)” value is -4.13.

Regarding A30G C149G, the “polymerase ribozyme fitness (log ratio)” value is not above -4.2.

Consider A30G A37U G50A G83C, for which the “polymerase ribozyme fitness (log ratio)” value was not above -4.2.

Regarding C27G U61A C93U C95U A97U G133U, the “polymerase ribozyme fitness (log ratio)” value is not above -4.2.

In the case of C27U U56A, the “polymerase ribozyme fitness (log ratio)” value is -1.67.

Take A30C G83C U101G A121U: the “polymerase ribozyme fitness (log ratio)” value was not above -4.2.

In the case of A29U G62C G70A A137U A138C, the “polymerase ribozyme fitness (log ratio)” value was not above -4.2.

As to A29U A52G C76G G84A C116G C118A A137G G141A C149U G152C, the “polymerase ribozyme fitness (log ratio)” value is not above -4.2.

Take C27U A37C G50U C95A: the “polymerase ribozyme fitness (log ratio)” value is -2.6.

With A28C C87A A107C, the “polymerase ribozyme fitness (log ratio)” value is not above -4.2.

On to A29U G112C A121G G136U A137G U145A, for which the “polymerase ribozyme fitness (log ratio)” value was not above -4.2.

Take A28U C63U C72U C93U C105G A142U: the “polymerase ribozyme fitness (log ratio)” value is not above -4.2.

With C27U A60G C93A C125G G136A, the “polymerase ribozyme fitness (log ratio)” value was -2.85.

Turning to C27U A47U U53A, the “polymerase ribozyme fitness (log ratio)” value is -2.28.

Consider A29C C54U G84A A97U, for which the “polymerase ribozyme fitness (log ratio)” value is not above -4.2.

As for A30G A60C A110G A113U A150G, the “polymerase ribozyme fitness (log ratio)” value was not above -4.2.

In the case of A28U G59A, the “polymerase ribozyme fitness (log ratio)” value was not above -4.2.

Take C27G C57G U61A A106C: the “polymerase ribozyme fitness (log ratio)” value is not above -4.2.

As to A29G A49G C51U G70A A107U, the “polymerase ribozyme fitness (log ratio)” value is not above -4.2.

Regarding A29G C54U G59A C76U U82C G88C C95G C96G, the “polymerase ribozyme fitness (log ratio)” value is not above -4.2.
